Results reported in patent US7407939 (CUREGENICS, dated 2008).
Where no end group is shown, it is not given here. Side-chain parts run from the residue outwards. [ ]: non-standard residue; d: D form. The star is where a group is joined. SO2‑IQ = 5-aminoethylsulfoneamide isoquinoline, O=S(=O)(NCCN*)c1cccc2cnccc12; S‑IQ = 5-mercaptoaminopropyl isoquinoline; hLeu = CC(C)CC[C@H](N)C(=O)O; GltNH2 = not defined here; Nle = CCCC[C@H](N)C(=O)O; Orn = NCCC[C@H](N)C(=O)O; bGaba = not defined here; Dab = NCC[C@H](N)C(=O)O; Nva = CCC[C@H](N)C(=O)O; Abu = CC[C@H](N)C(=O)O; Dap = NC[C@H](N)C(=O)O; Ph2 = not defined here; GlyNH2 = aminoglycine; Ava = NCCCCC(=O)O; βAla = NCCC(=O)O

What follows are binders tested against protein kinase A, catalytic subunit (assay: cell-based or functional assay).
With RPRTE([βAla-S‑IQ])SF [PTR 6102] the “IC50 PKA” value was 100 nM. In the case of RPRTE(S‑IQ)SF [PTR 6104], the “IC50 PKA” value is reported as 100 nM. RPR[Orn]E(SO2‑IQ)SF [PTR 6132] was tested, and the “IC50 PKA” value was 12 nM.

Target: protein kinase A, catalytic subunit
Assay: cell-based or functional assay
Remark: another data set of the same source
RPRTSA[hLeu] [TY 60002-50] was tested, and the “Activity PKA” value was > 40 µM. With RPRTS[Abu][hLeu] [TY 60002-73] the “Activity PKA” value was > 40 µM. In the case of RPRVS[Abu]F [TY 60002-61], the “Activity PKA” value is reported as > 40 µM. RPRTS[Dap][hLeu] [TY 60002-96] was tested, and the “Activity PKA” value was > 40 µM.

Target: protein kinase A, catalytic subunit
Assay: cell-based or functional assay
Remark: another data set of the same source
For RPRTS[GlyNH2]F [60005-5], the “IC50 µM PKA” value was 7.5 µM. For RPR[Nva][GlyNH2]A[hLeu] [60006-5A], the “IC50 µM PKA” value was 139 µM. In the case of RPRTS[Abu][hLeu] [TY 60002-73], the “IC50 µM PKA” value is reported as 228 µM.

Target: protein kinase A, catalytic subunit
Assay: cell-based or functional assay
Remark: another data set of the same source
For RPRTS[GlyNH2]F [60005-5], the “% Inhibition PKA” value was 40%. For RPR[Nva][GlyNH2]A[hLeu] [60006-5A], the “% Inhibition PKA” value was 10%. RPR[Nva][GlyNH2][Abu][hLeu] [60006-7B] was tested, and the “% Inhibition PKA” value was 24%. With RPR[Nva][GlyNH2][Dap][Ph2] (reading uncertain) [60006-11B] the “% Inhibition PKA” value was 20%. With RPR[Nva][GlyNH2][GltNH2][hLeu] (reading uncertain) [60006-16A] the “% Inhibition PKA” value was 21%. With RPRTSA[hLeu] [TY 60002-50] the “% Inhibition PKA” value was 2%. With RPRTS[Abu][hLeu] [TY 60002-73] the “% Inhibition PKA” value was 8%.

Target: protein kinase A, catalytic subunit
Assay: cell-based or functional assay
Remark: another data set of the same source
For RPRTE([βAla-S‑IQ])SF [PTR 6102], the “PKA IC50” value was 100 nM. For RPRTE(SO2‑IQ)SF [PTR 6016], the “PKA IC50” value was 100 nM. With RPRTE([βAla-SO2‑IQ])SF [PTR 6082] the “PKA IC50” value was 200 nM. With RPR[Nle]E([βAla-SO2‑IQ])SF [PTR 6086] the “PKA IC50” value was 500 nM. With RPR[Orn]E([bGaba-SO2‑IQ])SF (reading uncertain) [PTR 6088] the “PKA IC50” value was 1000 nM. In the case of RPRTE([Ava-SO2‑IQ])SF [PTR 6090], the “PKA IC50” value is reported as 600 nM. RPR[Nle]E([βAla-SO2‑IQ])S[Nle] [PTR 6096] was tested, and the “PKA IC50” value was 200 nM. RPRTE(S‑IQ)SF [PTR 6104] was tested, and the “PKA IC50” value was 100 nM. RPR[Nle]E(SO2‑IQ)SF [PTR 6128] was tested, and the “PKA IC50” value was 100 nM. For RPRTD(SO2‑IQ)SF [PTR 6130], the “PKA IC50” value was 53 nM. In the case of RPR[Orn]E(SO2‑IQ)SF [PTR 6132], the “PKA IC50” value is reported as 12 nM. RPR[Nle]E([βAla-SO2‑IQ])[Dab]F [PTR 6140] was tested, and the “PKA IC50” value was 195 nM. In the case of RPR[Nva]E([βAla-SO2‑IQ])A[hLeu] [PTR 6152], the “PKA IC50” value is reported as 5000 nM.
